Measurements published in the supplement of paper PMC7877785.
± gives the uncertainty stated by the source.

Test: self-splicing fitness, log relative to wild type (ln ratio); higher = more splicing; Tetrahymena group I intron in knt gene, E. coli kanamycin selection, DiMSum; sequences stand for … in CUCUCU…GGAGGGAAAAGUUAUCAGGCAUGCACCUGGUAGCUAGUCUUUAAACCAAUAGAUUGCAUCGGUUUAAAAGGCAAGACCGUCAAAUUGCGGGAAAGGGGUCAACAGCCGUUCAGUACCAAGUCUCAGGGGAAACUUUGAGAUGGCCUUGCAAAGGGUAUGGUAAUAAGCUGACGGACAUGGUCCUAACCACGCAGCCAAGUCCUAAGUCAACAGAUCUUCUGUUGAUAUGGAUGCAGUUCACAGACUAAAUGUCGGUCGGGGAAGAUGUAUUCUUCUCAUAAGAUAUAGUCGGACCUCUCCUUAAUGGGAGCUAGCGGAUGAAGUGAUGCAACACUGGAGCCGCUGGGAACUAAUUUGUAUGCGAAAGUAUAUUGAUUAGUUUUGGAGUACUCGUGGUCG
Procedure, shortened: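 Pooled colonies went to amplicon sequencing on an Illumina HiSeq 2500 after six replicate transformations. The plates were LB agar with 100 μg/mL carbenicillin, 50 μM IPTG and 0.2% rhamnose, with or without 25 μg/mL kanamycin, incubated overnight at 37°C or 30°C. The E. coli BL21(DE3) library had all eight P1ex-region intron nucleotides randomised, the intron placed in the knt kanamycin-resistance gene on pET-22b(+). DiMSum fitness is the error-weighted combination of replicate fold changes, kanamycin against none, normalised to wild type.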

Sequence | self-splicing fitness (ln) (30 °C) | self-splicing fitness (ln) (37 °C)
CCUUAGCAAUAUUACGAGAU | -2.62 ± 0.26 | -2.79 ± 0.21
CCUUAGCAAUAUUACGAGCC | -3.38 ± 0.34 | 
CCUUAGCAAUAUUACGAUUU | -4.25 ± 0.42 | -2.44 ± 0.35
CCUUAGCAAUAUUACGCAAC |  | -2.04 ± 0.48
CCUUAGCAAUAUUACGCAGU | -3.81 ± 0.23 | -2.32 ± 0.23
CCUUAGCAAUAUUACGCAUG | -3.78 ± 0.19 | -2.14 ± 0.18
CCUUAGCAAUAUUACGCCGU | -2.66 ± 0.22 | -2.18 ± 0.24
CCUUAGCAAUAUUACGCCUC |  | -2.65 ± 0.41
CCUUAGCAAUAUUACGCGGC | -2.89 ± 0.27 | -3.63 ± 0.42
CCUUAGCAAUAUUACGCUUU | -3.64 ± 0.31 | -2.46 ± 0.22
CCUUAGCAAUAUUACGGAAC |  | -2.73 ± 0.44
CCUUAGCAAUAUUACGUCAC | -3.46 ± 0.26 | -2.21 ± 0.29
CCUUAGCAAUAUUACGUCAU | -3.85 ± 0.21 | -2.96 ± 0.24
CCUUAGCAAUAUUACGUGCU | -3.4 ± 0.18 | -2.83 ± 0.31
CCUUAGCAAUAUUACGUGGC | -4.19 ± 0.31 | -2.88 ± 0.31
CCUUAGCAAUAUUACGUGGG | -2.78 ± 0.16 | -2.35 ± 0.16
CCUUAGCAAUAUUACGUUAU | -2.42 ± 0.14 | -2.45 ± 0.28
CGAAAGCAAUAUUACGAAAA | -2.38 ± 0.29 | -1.32 ± 0.23
CGAAAGCAAUAUUACGAAUG | -0.194 ± 0.057 | 0.263 ± 0.08
CGAAAGCAAUAUUACGACGG | 0.0482 ± 0.089 | 0.569 ± 0.12
CGAAAGCAAUAUUACGACUG | -0.103 ± 0.064 | -0.811 ± 0.078
CGAAAGCAAUAUUACGAGCA | -2.3 ± 0.25 | -0.869 ± 0.24
CGAAAGCAAUAUUACGAGCC | -2.18 ± 0.32 | -1.19 ± 0.3
CGAAAGCAAUAUUACGAUCG | -3.41 ± 0.43 | -1.34 ± 0.29
CGAAAGCAAUAUUACGCACU | -0.573 ± 0.11 | 0.0275 ± 0.13

Sequence | self-splicing fitness (ln) (30 °C) | self-splicing fitness (ln) (37 °C)
CGAAAGCAAUAUUACGCGAC | -2.36 ± 0.19 | -3.26 ± 0.25
CGAAAGCAAUAUUACGCGAU | -2.86 ± 0.21 | -2.15 ± 0.34
CGAAAGCAAUAUUACGCGGU | -2.88 ± 0.17 | -2.41 ± 0.18
CGAAAGCAAUAUUACGCGUA | -2.68 ± 0.19 | -1.95 ± 0.18
CGAAAGCAAUAUUACGCUGC | -3.68 ± 0.23 | -2.69 ± 0.19
CGAAAGCAAUAUUACGGAUG | -0.462 ± 0.066 | -0.00232 ± 0.091
CGAAAGCAAUAUUACGGCCG | -1.64 ± 0.14 | -0.462 ± 0.21
CGAAAGCAAUAUUACGGGCG | -0.207 ± 0.098 | -0.157 ± 0.13
CGAAAGCAAUAUUACGGUCU | -0.258 ± 0.071 | -0.209 ± 0.089
CGAAAGCAAUAUUACGUAAG | -0.262 ± 0.049 | -0.000374 ± 0.07
CGAAAGCAAUAUUACGUUGU | -3.63 ± 0.15 | -2.7 ± 0.15
CGAAAGCAAUAUUACGUUUG | -2.33 ± 0.12 | -1.74 ± 0.14
CGAAAGCAAUAUUACGUUUU | -4.51 ± 0.24 | -2.31 ± 0.18
CGACAGCAAUAUUACGAAAG | -1.22 ± 0.13 | -0.409 ± 0.17
CGACAGCAAUAUUACGAAUA | -2.16 ± 0.18 | -3.12 ± 0.3
CGACAGCAAUAUUACGAUCC | -0.0657 ± 0.16 | -0.196 ± 0.19
CGACAGCAAUAUUACGAUGC | -3.57 ± 0.17 | -1.92 ± 0.18
CGACAGCAAUAUUACGCAAU | -4.5 ± 0.33 | -2.81 ± 0.22
CGACAGCAAUAUUACGCACC | -0.97 ± 0.21 | -1.79 ± 0.21
CGACAGCAAUAUUACGCACU | -1.22 ± 0.09 | 0.0742 ± 0.12
CGACAGCAAUAUUACGCAGA | -2.61 ± 0.1 | -2.06 ± 0.1
CGACAGCAAUAUUACGCCCA | -1.56 ± 0.11 | -0.725 ± 0.11
CGACAGCAAUAUUACGCCCG | 0.138 ± 0.24 | 
CGACAGCAAUAUUACGCCUC | -2.24 ± 0.2 | -0.498 ± 0.2
